The source of these data is patent US20190270997.

One data set addresses HA-tagged KMT2D S1331A (UniProt O14686).
For data set [1], the target named is V5-tagged KMT2D fragment (1222-1819) (UniProt O14686).
Data set [2] has as its target HA-tagged KMT2D (full length, wild type) (UniProt O14686).

Sequence of recombinant His-AKT (MRC-PPU Reagents DU1850) (P31749 whole entry): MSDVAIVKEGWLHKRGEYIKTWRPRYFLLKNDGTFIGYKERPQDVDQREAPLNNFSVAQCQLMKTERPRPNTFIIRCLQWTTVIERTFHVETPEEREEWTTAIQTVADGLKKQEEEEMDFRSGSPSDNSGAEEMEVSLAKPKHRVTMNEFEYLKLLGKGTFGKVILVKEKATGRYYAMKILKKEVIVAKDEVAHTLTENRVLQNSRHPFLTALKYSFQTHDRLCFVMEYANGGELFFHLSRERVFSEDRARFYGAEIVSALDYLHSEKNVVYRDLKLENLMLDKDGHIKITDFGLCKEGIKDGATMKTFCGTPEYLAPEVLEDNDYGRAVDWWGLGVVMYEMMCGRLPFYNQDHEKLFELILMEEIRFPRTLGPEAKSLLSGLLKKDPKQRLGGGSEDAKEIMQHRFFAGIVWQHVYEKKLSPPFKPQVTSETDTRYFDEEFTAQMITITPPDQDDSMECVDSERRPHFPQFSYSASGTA

Regarding “recombinant His-AKT (MRC-PPU Reagents DU1850)”, the “in vitro kinase assay; phosphorylation detected by phospho-RXRXX(S/T) and phospho-KMT2D (S1331) antibodies” value was “Mutation of serine to alanine (S1331A) completely abrogated the ability of AKT to phosphorylate KMT2D in vitro” with HA-tagged KMT2D S1331A and “The kinase assay confirmed the ability of AKT to directly phosphorylate S1331” in data set [2]. For the same substance, the “in vitro kinase assay with the KMT2D (1222-1819) fragment as substrate (FIG. 11C)” value in data set [1] is “The kinase assay confirmed the ability of AKT to directly phosphorylate S1331”.
